This note sets out measurements from US20230012273A1 (Boehringer Ingelheim, published 2023).

Test [1] has as its target ED-tagged human SIRPα V1 receptor on Jurkat signaling reporter cells (human, UniProt P78324 31-504). The experiment in a line: cell-based or functional assay.
The target of test [2] is ED-tagged human SIRPα V2 receptor on Jurkat signaling reporter cells (human, UniProt P78324 31-504). The test is described as follows: cell-based or functional assay.
Test [3] addresses T1, full-length human SIRPβ1 (NP_006056.2) on cells (human, UniProt O00241 30-398).
T1 construct: also called β1 WT
The test is described as follows: flow cytometry, Expi-CHO cells. The procedure:
(§1) These cells are blocked with donkey IgG and incubated on ice with increasing concentrations of antibodies for 60 minutes, washed and stained with AF647-conjugated donkey F(ab′)₂ anti-human IgG antibodies. Stained cells are washed, fixed, and analyzed by flow cytometry. Median fluorescent intensity is determined and used as a measure of antibody binding.

Test [4] concerns the target T2, full-length human SIRPβL H→D on Expi-CHO cells (human, UniProt Q5TFQ8 30-398).
T2 construct: the entry already carries the change (PDHV to PDDV); also called βL WT H→D
The experiment in a line: flow cytometry, Expi-CHO cells. The procedure:
as §1, with “Expi-CHO parental cells are transduced with lentiviruses containing either full-length wild-type human SIRPβL (Q5TFQ8) or full-length human SIRPβL with a single amino acid point mutation (Table 62) and sorted to achieve matching expression levels. These” for “These”
(§2) A single amino acid substitution (H→D) introduced within the loop region maintained, strengthened, or facilitated antibody binding to these cells (FIG. 34B, Table 63).
(Flow cytometry measures light scatter and fluorescence of single cells or particles in a stream.)

The target in test [5] is T3, full-length human SIRPγ N→D on Expi-CHO cells (human, UniProt Q9P1W8 29-387).
T3 construct: the entry already carries the change (PENV to PEDV)
The test is described as follows: flow cytometry, Expi-CHO cells. The procedure:
(§3) Expi-CHO parental cells are transduced with lentiviruses containing either full-length wild-type human SIRPγ ([…]) or full-length human SIRPγ with amino acid point mutations (Table 64) and sorted to achieve matching expression levels. These cells are blocked with donkey IgG and incubated on ice with increasing concentrations of antibodies for 60 minutes, washed and stained with AF647-conjugated donkey F(ab′)₂ anti-human IgG antibodies. Stained cells are washed, fixed, and analyzed by flow cytometry. Median fluorescent intensity is determined and used as a measure of antibody binding.

Test [6] addresses T4, full-length human SIRPγ EN→DD on Expi-CHO cells (human, UniProt Q9P1W8 29-387).
T4 construct: the entry already carries the change (PENV to PDDV)
T4 chain: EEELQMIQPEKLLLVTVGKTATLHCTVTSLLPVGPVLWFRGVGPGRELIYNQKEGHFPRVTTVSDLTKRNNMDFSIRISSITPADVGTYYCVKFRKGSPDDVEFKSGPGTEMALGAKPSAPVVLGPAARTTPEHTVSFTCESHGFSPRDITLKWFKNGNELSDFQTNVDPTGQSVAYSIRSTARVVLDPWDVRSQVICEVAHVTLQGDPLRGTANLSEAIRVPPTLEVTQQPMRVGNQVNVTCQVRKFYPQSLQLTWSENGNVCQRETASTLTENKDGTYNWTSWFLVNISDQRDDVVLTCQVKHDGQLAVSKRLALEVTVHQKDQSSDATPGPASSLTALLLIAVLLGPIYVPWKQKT
The experiment in a line: flow cytometry, Expi-CHO cells. The procedure:
as §3

Test [7] deals with T1, full-length human SIRPβ1 (NP_006056.2) …. The experiment in a line: flow cytometry, U937 SIRPα-KO transfectants. Here is the method:
(§4) Antibody binding to cells expressing full-length human SIRPβ1 (NP_006056.2) and SIRPβL (NP_001129316.1) is evaluated by flow cytometry. SIRPβ1- or SIRPβL-expressing U937^{SIRPα KO} cells are blocked with donkey IgG and incubated on ice with increasing concentrations of antibodies for 60 minutes, washed and stained with AF647-conjugated donkey F(ab′)₂ anti-human IgG secondary reagent. Cells are washed, fixed, and analyzed by flow cytometry. Median fluorescent intensity is determined and used as a measure of antibody binding.

The target in test [8] is T5, full-length human SIRPγ E→D on Expi-CHO cells (human, UniProt Q9P1W8 29-387).
T5 construct: the entry already carries the change (PENV to PDNV)
The experiment in a line: flow cytometry, Expi-CHO cells expressing full-length human SIRPγ E→D. The procedure: as §3

Test [9] concerns the target T6, full-length human SIRPβ1 D→H on Expi-CHO cells (human, UniProt O00241 30-398).
T6 construct: the entry already carries the change (PDDV to PDHV)
The test is described as follows: flow cytometry, Expi-CHO cells expressing full-length human SIRPβ1 D→H. Here is the method: as §1

Test [10] concerns the target T7, full-length human SIRPγ (NP_061026.2) on cells (human, UniProt Q9P1W8 29-387).
T7 construct: also called CHO-hSIRPγ; γ WT
The experiment in a line: flow cytometry, Expi-CHO cells expressing full-length wild-type human SIRPγ. Here is the method: […] These cells are blocked with donkey IgG and incubated on ice with increasing concentrations of antibodies for 60 minutes, washed and stained with AF647-conjugated donkey F(ab′)₂ anti-human IgG antibodies. Stained cells are washed, fixed, and analyzed by flow cytometry. Median fluorescent intensity is determined and used as a measure of antibody binding.

Test [11] addresses T8, full-length human SIRPβL (NP_001129316.1) on cells (human, UniProt Q5TFQ8 30-398).
T8 construct: one molecule for U937 SIRPα-KO transfectants (NP_001129316.1) and Expi-CHO transfectants (Q5TFQ8); also called SIRPβ1v3; βL WT
The experiment in a line: flow cytometry, Expi-CHO cells expressing full-length wild-type human SIRPβL. Here is the method:
Expi-CHO parental cells are transduced with lentiviruses containing either full-length wild-type human SIRPβL (Q5TFQ8) or full-length human SIRPβL with a single amino acid point mutation (Table 62) and sorted to achieve matching expression levels. These cells are blocked with donkey IgG and incubated on ice with increasing concentrations of antibodies for 60 minutes, washed and stained with AF647-conjugated donkey F(ab′)₂ anti-human IgG antibodies. Stained cells are washed, fixed, and analyzed by flow cytometry. Median fluorescent intensity is determined and used as a measure of antibody binding.
as §2

In test [12] the target is T9, full-length human SIRPαV1 (NP_542970.1) on cells (human, UniProt P78324 31-504).
T9 construct: one molecule for CHO-K1 and Expi-CHO transfectants (NP_542970.1) and for endogenous V1 on U-937 cells and on CD14+ monocytes of V1/V1 donors; also called CHO-hSIRPαV1; αV1 WT
The test is described as follows: flow cytometry, CD14+ monocytes V1V1. Here is the method:
(§5) Antibody binding to primary human cells expressing SIRPα is evaluated by flow cytometry. Human peripheral blood mononuclear cells (PBMCs) from donors genotyped as homozygous for the SIRPα V1 allele, V2 allele, or heterozygous for both alleles are blocked with donkey IgG and incubated on ice with increasing concentrations of antibody for 60 minutes, washed and stained with AF647-conjugated donkey F(ab′)₂ anti-human IgG secondary reagent. […] Cells are washed, fixed, and analyzed by flow cytometry. Median fluorescent intensity of the CD14+ population was determined and used as a measure of antibody binding.

Test [13] has as its target T10, full-length human SIRPαV2 (CAA71403.1) on cells (human, UniProt P78324 31-504).
T10 construct: one molecule for CHO-K1 and Expi-CHO transfectants (CAA71403.1) and for endogenous V2 on THP-1 cells and on CD14+ monocytes of V2/V2 donors; also called CHO-hSIRPαV2; αV2 WT
The experiment in a line: flow cytometry, CD14+ monocytes V2V2. Here is the method:
as §5

In test [14] the target is T8, full-length human SIRPβL …. The test is described as follows: flow cytometry, U937 SIRPα-KO transfectants. The procedure: as §4
Test [15] concerns the target T10, full-length human SIRPαV2 (CAA71403.1) …. The experiment in a line: flow cytometry, competition with CD47 tetramer, monocytes V2V2. The procedure: Cells are washed, fixed, and analyzed by flow cytometry. Median fluorescent intensity of CD14+gated population is determined and used as a measure of CD47 binding.
Test [16] concerns the target T7, full-length human SIRPγ (NP_061026.2) …. The test is described as follows: flow cytometry, primary human CD3+ T cells (endogenous SIRPγ). Here is the method:
(§6) Antibody binding to primary human T cells expressing endogenous SIRPγ is evaluated by flow cytometry. Human peripheral blood mononuclear cells (PBMCs) are blocked with donkey IgG and incubated on ice with increasing concentrations of antibody for 60 minutes, washed and stained with AF647-conjugated donkey F(ab′)₂ anti-human IgG secondary reagent. […] Cells are washed, fixed, and analyzed by flow cytometry. Median fluorescent intensity of CD3+ gated population is determined and used as a measure of antibody binding.

Test [17] deals with T8, full-length human SIRPβL …. The test is described as follows: flow cytometry, U937 SIRPα-KO cells expressing full-length human SIRPβL. Here is the method: as §4
The target in test [18] is T7, full-length human SIRPγ (NP_061026.2) …. The test is described as follows: flow cytometry, primary CD3+ T cells. Here is the method: as §6

B1: Antibody A4 (antibody, human IgG1, kappa, L234A L235A, V domains shown)
VH: EVQLVESGGGLVQPGGSLRLSCAASGFTLSSYDMHWVRQAPGKGLEWVSAIGTAGDTYYTGSVKGRFTISRENAKNSLYLQMNSLRAADTAVYYCVRGGVWDDAFDIWGQGTMVTVSS
VL: DIQMTQSPSSLSASVGDRVTITCRASQGINNYAAWFQQKPGKAPKSLIYTASSLHSGVPSKFSGSGSGTDFTLTISSLQPEDFATYYCQQYVSYPYTFGQGTKLEIKR
A word on the EC50: it is the concentration giving half of the maximal effect. Higher therefore signals weaker potency. With B1, the “Blockade of Cellular CD47-Mediated SIRPα Signaling; IC50” value (from here on “Blockade”) amounted to 40 pM in test [1] and 50 pM in test [2]. The concentration for a half-maximal effect (EC50) in test [3] was found to be 1500 pM; in test [4], 500 pM; in test [5], 500 pM; in test [6] it was 700 pM; in test [7] it was 200 pM. In addition, the binding result in [8], in test [9], in [10] and in [11] was “no binding (tested: about 67 nM)” each time.

B2: Antibody G (antibody, human IgG4 S228P, kappa)
heavy: not shown
light: DIVMTQSPLSLPVTPGEPASISCKSSQSLLYSNGYNYLDWYLQRPGQSPQLLIYLGSNRASGVPDRFSGSGSGTDFTLKISRVEAEDVGVFYCMQALQTPLTFGGGTKVEIKRTVAAPSVFIFPPSDEQLKSGTASVVCLLNNFYPREAKVQWKVDNALQSGNSQESVTEQDSKDSTYSLSSTLTLSKADYEKHKVYACEVTHQGLSSPVTKSFNRGEC
The IC50 is the point on the concentration scale where inhibition reaches its midpoint. Read a high IC50 as weaker potency in that assay. Regarding B2, the “Blockade” value in test [1] amounted to 40 pM; in test [2] it was 30 pM. Besides, the EC50 in test [12] was 300 pM; in test [13] it was 400 pM; in [14] it was 300 pM. In test [15], this molecule came in with a half-maximal inhibitory concentration (IC50) of 220 pM. In test [16], the binding result was “no binding (tested: about 67 nM)”.

B3: Antibody F (antibody, human IgG4 S228P, kappa)
heavy: not shown
light: DIQMTQSPSSLSASVGDRVTITCRASQDINNYLAWFQQKPGKAPKSLIYTASSLHSGVPSKFSGSGSGTDFTLTISSLQPEDFATYYCQQYVSYPYTFGQGTKLEIKRTVAAPSVFIFPPSDEQLKSGTASVVCLLNNFYPREAKVQWKVDNALQSGNSQESVTEQDSKDSTYSLSSTLTLSKADYEKHKVYACEVTHQGLSSPVTKSFNRGEC
In the case of B3, the entries for the “Blockade” value in test [1] and in test [2] were 40 pM and 30 pM, respectively. Moreover, the concentration giving a half-maximal response (EC50) in [7] was determined as 200 pM. Besides, the binding result in [16] is listed as “no binding (tested: about 67 nM)”; in test [17] it was “no binding (tested: about 200 nM)”.

B4: Antibody A11 (antibody, human IgG4 S228P, kappa)
heavy: not shown
light: DIQMTQSPSSLSASVGDRVTITCRASQDINNYLAWFQQKPGKAPKSLIYTASSLHSGVPSKFSGSGSGTDFTLTISSLQPEDFATYYCQQYVSYPYTFGQGTKLEIKRTVAAPSVFIFPPSDEQLKSGTASVVCLLNNFYPREAKVQWKVDNALQSGNSQESVTEQDSKDSTYSLSSTLTLSKADYEKHKVYACEVTHQGLSSPVTKSFNRGEC
B4: the figures for the “Blockade” value in [1] and in test [2] were 40 pM and 20 pM, respectively. Further, the binding result is listed as “no binding” in [18] and “no binding (tested: about 200 nM)” in test [17]. Further, the 50% effective concentration (EC50) in test [7] amounted to 300 pM.
